Among the data in article PMC5000598 are stoichiometry N values, retold here.

By stoichiometry N is commonly meant a count of units in the complex or per binding partner.

Assay [1] addresses LZ-EGFR-GFP (chimeric EGFR with the extracellular domain replaced by the c-Fos leucine zipper, GFP at the C-terminus) (UniProt P01100). The assay can be described thus: SDS-resistant dimer on SDS-PAGE immunoblot; total Triton X-100 lysates of transfected 293T cells boiled in SDS-loading buffer with beta-mercaptoethanol, no cross-linker; immunoblot with anti-pEGFR antibodies. A general note: Immunoblotting shows a protein as a band on a membrane.

The target is the same in assay [2]. The assay can be described thus: cross-linking; homogenates of transiently transfected 293T cells in PBS, 6 mM DSS, 30 min at room temperature, quenched with 250 mM glycine; membrane pellet lysed, SDS-PAGE, immunoblot with anti-EGFR and anti-GFP; EGFR-GFP cells stimulated with EGF (100 ng/mL, 30 min).

In the case of “LZ-EGFR-GFP (chimeric EGFR with the extracellular domain replaced by the c-Fos leucine zipper, GFP at the C-terminus) (from UniProt P01100 160-200; P00533 623-1210) (receptor)”, the stoichiometry N in assay [1] and in assay [2] was 2 throughout.
